In this experiment the target is T1, 人BCMA-His抗原 (ACRO, Cat#BCA-H522y) (human, UniProt Q02223 1-54).
T1 construct: Bought reagent; Coated on the ELISA plate at 2 ug/ml; also called 人BCMA蛋白; 人BCMA抗原; not shown: His tag
T1 sequence (looked up): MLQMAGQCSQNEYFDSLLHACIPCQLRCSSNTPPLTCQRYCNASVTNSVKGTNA
As to the kind of experiment: indirect ELISA, human BCMA-His coated at 2 ug/ml, detection with HRP goat anti-human Fc gamma. (In general: In an ELISA, binding on a coated surface is turned into a signal by an enzyme label.)

The record followed here is patent CN112538115A (BIOSION BIO TECH NANJING CO LTD, dated 2021).

B1: BCMA-VHH-1F7纳米抗体 (抗人BCMA纳米抗体, 含有Fc tag) (Fc fusion)
chain: EVQLVESGGGLVQAGGSLRLSCAASGGTFNNDNVGWFRQAPGKEREFVAVISWRGDGTDYADSVKGRFTISRDYAKKMVYLQMNSLQPKDTAVYYCAVGDGSRWHGAYAYWGQGTRVTVSS
notes: Expressed in Expi293F cells with an Fc tag and purified on Protein A or G; detected with anti-human Fc gamma, about 35 kDa on SDS-PAGE; also called 抗BCMA纳米抗体; not shown: Fc tag
B1: the binding result was “binds”.
